Reference: patent publication US20070254831A1 (published 2007)
Where two headings read alike, the source gives them in different places. Bridge positions count the residues as written; N and C are the ends. Square brackets hold non-standard residues; d marks the D form. Ends that are not written are not given here.

Columns and labels:
soluble human FcRn [1] = target: T1, soluble human FcRn (human, UniProt P55899 24-297; P61769 21-119, biotinylated (Sulfo-NHS-LC-Biotin) in the ELISA; amine-coupled to CM5 chip in SPR); assay: SPR, pH 6
T1 construct: also called shFcRn; biotinylated shFcRn
T1 sequence (P55899 24-297 limits assumed, chain 1 of 2): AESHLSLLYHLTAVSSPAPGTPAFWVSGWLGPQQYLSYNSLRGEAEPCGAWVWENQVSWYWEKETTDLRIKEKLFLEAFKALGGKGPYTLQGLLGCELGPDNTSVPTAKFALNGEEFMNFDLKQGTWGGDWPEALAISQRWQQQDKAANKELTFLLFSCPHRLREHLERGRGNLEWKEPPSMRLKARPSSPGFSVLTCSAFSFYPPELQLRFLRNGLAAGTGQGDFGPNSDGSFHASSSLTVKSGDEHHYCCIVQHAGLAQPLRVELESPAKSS
T1 sequence (P61769 21-119 limits assumed, chain 2 of 2): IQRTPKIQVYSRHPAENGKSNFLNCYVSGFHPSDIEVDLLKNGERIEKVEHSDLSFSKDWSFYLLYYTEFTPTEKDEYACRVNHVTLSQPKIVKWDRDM
Procedure: (§1) The following steps were performed to cross-link soluble human or cynomolgus FcRn to the dextran surface of a CM5 sensor chip (Biacore AB, Uppsala, Sweden) by an amine coupling reaction involving 1-ethyl-(3-dimethylaminopropyl)-carbodiimide hydrochloride (EDC) (Biacore AB, Uppsala, Sweden) and N-hydroxysuccinimide (NHS) (Biacore AB, Uppsala, Sweden) as recommended by Biacore (BIAapplications Handbook, version AB, section 4.2, Biacore AB, Uppsala, Sweden). […] Residual sites on the FcRn flow cell were blocked with 1 M ethanolamine hydrochloride pH 8.5 (Biacore AB, Uppsala, Sweden). A control flow cell was blocked with ethanolamine for reference subtraction. For analysis of the monomeric peptides, FcRn was coated to a final density of 4000-5000 response units (RU). For analysis of the peptide dimers, FcRn was coated to a density of 2000-2500 RU. All SPR measurements were performed using a BIACORE 3000 Instrument (Biacore AB Uppsala, Sweden). For measurements done at either pH 6 or pH 7.4, experiments were performed in 50 mM phosphate, 100 mM sodium chloride, 0.01% surfactant P20 (Biacore AB, Uppsala, Sweden).
(§2) Ten, 2-fold dilutions of the peptide were injected over the FcRn-CM5 chip at a rate of 20 μl/min for 2 min. The peptide was dissociated from the chip for 2.5 minutes with buffer. Any remaining peptide was removed from the chip with a 30 second injection of HBS-P buffer (Biacore AB, Uppsala, Sweden) at a rate of 30 μl/min. Sensorgrams were generated and analyzed using BiaEval software version 3.1 (Biacore AB, Uppsala, Sweden). The equilibrium RU observed for each injection was plotted against concentration. The equilibrium KD values were derived by analysis of the plots using the steady state affinity model included in the BiaEval software.

soluble human FcRn [2] = target: T1, soluble human FcRn; assay: SPR, pH 7.4
Procedure: as §1, §2

soluble human FcRn [3] = target: T1, soluble human FcRn; assay: ELISA, competitor human IgG
Procedure: (§3) The wells were coated with 100 μl/well of 1 μg/ml biotinylated-shFcRn in Buffer A. The plate was sealed and incubated at 37° C. for 2 hours. Afterwards, the plate washed with 200 μl/well of Buffer B (Buffer B: 100 mM MES pH 6, 150 mM NaCl, 0.5% BSA IgG-free (Jackson ImmunoResearch, West Grove, Pa.), 0.05% Tween-20). […] To allow for mixing, the plate was rocked for 2 minutes, sealed and incubated at 37° C. for 2 hours. […] The plate was covered, incubated for 30 minutes at room temperature and washed 4 times with 200 μl/well of ice-cold buffer B. SureBlue TMB substrate solution (100 μl/well, KPL, Gaithersburg, Md.) was added and the plate was allowed to incubate at room temperature until color developed, which took 5 to 10 minutes. Once color developed, 100 μl/well of TMB stop solution (KPL, Gaithersburg, Md.) was added and the absorbance was measured at 450 nm. The data was plotted as absorbance vs. peptide concentration to derive the inhibitory concentration 50% (IC₅₀) values.

soluble human FcRn [4] = target: T1, soluble human FcRn; assay: SPR, pH 6; remark: listed apart in the source
Procedure: as §1, §2

soluble human FcRn [5] = target: T1, soluble human FcRn; assay: ELISA, competitor human IgG; remark: listed apart in the source
Procedure: as §3

soluble human FcRn [6] = target: T1, soluble human FcRn; assay: ELISA, competitor human IgG; remark: listed apart in the source
Procedure: as §3

soluble human FcRn [7] = target: T1, soluble human FcRn; assay: ELISA, competitor human IgG; remark: listed apart in the source
Procedure: as §3

soluble human FcRn [8] = target: T1, soluble human FcRn; assay: ELISA, competitor human IgG; remark: listed apart in the source
Procedure: as §3

## RFXTGXFGGLYPC (Pen at 3; 4GuanylPhe at 6; Sar at 9; NMeLeu at 10; disulfide; C-terminal amide) [Peptide No. 257]
Soluble human FcRn [1]
  Kd: 74 nM
Soluble human FcRn [2]
  Kd: 73 nM

B1: Peptide No. 175 (peptide)
peptide: QRFVTGHFG[dP]FYPANGP-NH2
modifications: N-terminus assumed
SMILES: CC(C)[C@H](NC(=O)[C@H](Cc1ccccc1)NC(=O)[C@H](CCCNC(=N)N)NC(=O)[C@@H](N)CCC(N)=O)C(=O)N[C@H](C(=O)NCC(=O)N[C@@H](Cc1c[nH]cn1)C(=O)N[C@@H](Cc1ccccc1)C(=O)NCC(=O)N1CCC[C@@H]1C(=O)N[C@@H](Cc1ccccc1)C(=O)N[C@@H](Cc1ccc(O)cc1)C(=O)N1CCC[C@H]1C(=O)N[C@@H](C)C(=O)N[C@@H](CC(N)=O)C(=O)NCC(=O)N1CCC[C@H]1C(N)=O)[C@@H](C)O
Soluble human FcRn [3]
  IC50: 200 µM

B2: Peptide No. 190 (peptide)
peptide: QRFVTGHFG[dP]WYPINGP-NH2
modifications: N-terminus assumed
SMILES: CC[C@H](C)[C@H](NC(=O)[C@@H]1CCCN1C(=O)[C@H](Cc1ccc(O)cc1)NC(=O)[C@H](Cc1c[nH]c2ccccc12)NC(=O)[C@H]1CCCN1C(=O)CNC(=O)[C@H](Cc1ccccc1)NC(=O)[C@H](Cc1c[nH]cn1)NC(=O)CNC(=O)[C@@H](NC(=O)[C@@H](NC(=O)[C@H](Cc1ccccc1)NC(=O)[C@H](CCCNC(=N)N)NC(=O)[C@@H](N)CCC(N)=O)C(C)C)[C@@H](C)O)C(=O)N[C@@H](CC(N)=O)C(=O)NCC(=O)N1CCC[C@H]1C(N)=O
Soluble human FcRn [3]
  IC50: 49 µM

B3: Peptide No. 176 (peptide)
peptide: QRFVTGHFG[dP]YYPANGP-NH2
modifications: N-terminus assumed
SMILES: CC(C)[C@H](NC(=O)[C@H](Cc1ccccc1)NC(=O)[C@H](CCCNC(=N)N)NC(=O)[C@@H](N)CCC(N)=O)C(=O)N[C@H](C(=O)NCC(=O)N[C@@H](Cc1c[nH]cn1)C(=O)N[C@@H](Cc1ccccc1)C(=O)NCC(=O)N1CCC[C@@H]1C(=O)N[C@@H](Cc1ccc(O)cc1)C(=O)N[C@@H](Cc1ccc(O)cc1)C(=O)N1CCC[C@H]1C(=O)N[C@@H](C)C(=O)N[C@@H](CC(N)=O)C(=O)NCC(=O)N1CCC[C@H]1C(N)=O)[C@@H](C)O
Soluble human FcRn [3]
  IC50: 230 µM

## QRFXTGHXGGLYPCNGP (Pen at 4; 4-methoxy-Phe at 8; disulfide; C-terminal amide) [Peptide No. 56]
Soluble human FcRn [4]
  Kd: 18 µM
Soluble human FcRn [5]
  IC50: 100 µM

## QRFXTGHXGGLYPCNGP (Pen at 4; pentafluoro-Phe at 8; disulfide; C-terminal amide) [Peptide No. 57]
Soluble human FcRn [4]
  Kd: 70 µM

B4: Peptide No. 251 (peptide)
peptide: RFXTGXFGGLYPC
modifications: not fully specified; Pen at 3; ThienylAla at 6; Sar at 9; NMeLeu at 10; disulfide; C-terminal amide
Soluble human FcRn [6]
  IC50: 45 µM
Soluble human FcRn [1]
  Kd: 2000 nM
Soluble human FcRn [2]
  Kd: 3000 nM

## QRFXTGHXGGLYPCNGP (Pen at 4; 2-napthylalanine at 8; disulfide; C-terminal amide) [Peptide No. 62]
Soluble human FcRn [4]
  Kd: 11 µM
Soluble human FcRn [5]
  IC50: 90 µM

B5: Peptide No. 198 (peptide)
peptide: RFXTGHFXLYPC
modifications: Pen at 3; X at 8 = 5,5-bicyclic dipeptide mimic (drawing CHEM-US-00086); disulfide; C-terminal amide
Soluble human FcRn [7]
  IC50: 23 µM

## QRFXTGHWGGLYPCNGP (Pen at 4; disulfide; C-terminal amide) [Peptide No. 95]
Soluble human FcRn [5]
  IC50: 26 µM

## RFXTGKFGGLYPC (Pen at 3; Sar at 9; NMeLeu at 10; disulfide; C-terminal amide) [Peptide No. 255]
Soluble human FcRn [6]
  IC50: 40 µM
Soluble human FcRn [1]
  Kd: 1300 nM
Soluble human FcRn [2]
  Kd: 1100 nM

## RFXTGRFGGLYPC (Pen at 3; Sar at 9; NMeLeu at 10; disulfide; C-terminal amide) [Peptide No. 256]
Soluble human FcRn [6]
  IC50: 5.5 µM
Soluble human FcRn [1]
  Kd: 500 nM
Soluble human FcRn [2]
  Kd: 500 nM

## RFXTGHXGGLYPC (Pen at 3; 3-Cl-Phe at 7; disulfide; C-terminal amide) [Peptide No. 222]
Soluble human FcRn [5]
  IC50: 3.7 µM

## QRFXTGHXGGLYPCNGP (Pen at 4; 3-PyridylAla at 8; disulfide; C-terminal amide) [Peptide No. 59]
Soluble human FcRn [4]
  Kd: 19 µM
Soluble human FcRn [5]
  IC50: 60 µM

B6: Peptide No. 80 (as printed in Table 18) (peptide)
peptide: RFXTGHFXLYPC
modifications: Pen at 3; X at 8 = 3-amino-N-1-carboxymethyl-2,3,4,5-tetrahydro-1H-[1]-benzazepine-2-one (drawing CHEM-US-00083); disulfide; C-terminal amide
Soluble human FcRn [7]
  IC50: 159 µM

## RFXTGHXGGLYPC (Pen at 3; 3,3-Di-Phe at 7; disulfide; C-terminal amide) [Peptide No. 224]
Soluble human FcRn [5]
  IC50: 32 µM

B7: Peptide No. 167 (peptide)
peptide: QRFVTGHFG[dP]LYPVANGP-NH2
modifications: N-terminus assumed
SMILES: CC(C)C[C@H](NC(=O)[C@H]1CCCN1C(=O)CNC(=O)[C@H](Cc1ccccc1)NC(=O)[C@H](Cc1c[nH]cn1)NC(=O)CNC(=O)[C@@H](NC(=O)[C@@H](NC(=O)[C@H](Cc1ccccc1)NC(=O)[C@H](CCCNC(=N)N)NC(=O)[C@@H](N)CCC(N)=O)C(C)C)[C@@H](C)O)C(=O)N[C@@H](Cc1ccc(O)cc1)C(=O)N1CCC[C@H]1C(=O)N[C@H](C(=O)N[C@@H](C)C(=O)N[C@@H](CC(N)=O)C(=O)NCC(=O)N1CCC[C@H]1C(N)=O)C(C)C
notes: printed with -VA- before NGP
Soluble human FcRn [3]
  IC50: 93 µM

B8: Peptide No. 239 (peptide)
peptide: RFXTGHFXLYPC
modifications: Pen at 3; X at 8 = 3(S)-3-amino-2-oxo-1-azepine acetic acid; NMeLeu at 9; disulfide; C-terminal amide
Soluble human FcRn [7]
  IC50: 0.62 µM

## QRFXTGHXGGLYPCNGP (Pen at 4; 3-MePhe at 8; disulfide; C-terminal amide) [Peptide No. 89]
Soluble human FcRn [4]
  Kd: 0.67 µM
Soluble human FcRn [5]
  IC50: 4.1 µM

## QRFCTAHFGGLYPCNGP-NH2 (disulfide 4-14 (inferred)) [SEQ ID NO:28]
Soluble human FcRn [8]
  IC50: > 125 µM

## QRFCTGHFGGLAPCNGP-NH2 (disulfide 4-14 (inferred)) [SEQ ID NO:34]
Soluble human FcRn [8]
  IC50: > 125 µM

## QRFCTGAFGGLYPCNGP-NH2 (disulfide 4-14 (inferred)) [SEQ ID NO:29]
Soluble human FcRn [8]
  IC50: > 125 µM

## QRFCTGHAGGLYPCNGP-NH2 (disulfide 4-14 (inferred)) [SEQ ID NO:30]
Soluble human FcRn [8]
  IC50: > 125 µM

## QRFCTGHFGALYPCNGP-NH2 (disulfide 4-14 (inferred)) [SEQ ID NO:32]
Soluble human FcRn [8]
  IC50: > 125 µM

## QRFXTGHXGGLYPCNGP (Pen at 4; 4-amino-Phe at 8; disulfide; C-terminal amide) [Peptide No. 55]
Soluble human FcRn [4]
  Kd: 1 µM

B9: Peptide No. 193 (peptide)
peptide: RFXTGHFXLYPC
modifications: Pen at 3; X at 8 = (3S)-3-amino-2-oxo-1-piperidine-acetic acid; disulfide; C-terminal amide
Soluble human FcRn [7]
  IC50: 7.3 µM

## QRFXTGHXGGLYPCNGP (Pen at 4; 2-pyridylalanine at 8; disulfide; C-terminal amide) [Peptide No. 58]
Soluble human FcRn [5]
  IC50: 90 µM

## RFXTGHXGGLYPC (Pen at 3; 2-Cl-Phe at 7; disulfide; C-terminal amide) [Peptide No. 221]
Soluble human FcRn [5]
  IC50: 4 µM

B10: Peptide No. 181 (peptide)
peptide: RFXTGHFXLYPC
modifications: Pen at 3; X at 8 = 3-amino-N-1-carboxymethyl-2,3,4,5-tetrahydro-1H-[1]-benzazepine-2-one (drawing CHEM-US-00084); disulfide; C-terminal amide
Soluble human FcRn [7]
  IC50: 1.2 µM

## RFXTGHFXLYPC (Pen at 3; X at 8 = 6,5-bicyclic dipeptide mimic; disulfide; C-terminal amide) [Peptide No. 204]
Soluble human FcRn [7]
  IC50: 2.2 µM

## RFXTGXFGGLYPC (Pen at 3; 3PyridylAla at 6; Sar at 9; NMeLeu at 10; disulfide; C-terminal amide) [Peptide No. 250]
Soluble human FcRn [6]
  IC50: 1.2 µM
Soluble human FcRn [1]
  Kd: 64 nM
Soluble human FcRn [2]
  Kd: 260 nM

## QRFXTGHXGGLYPCNGP (Pen at 4; PheNHAc at 8; disulfide; C-terminal amide) [Peptide No. 94]
Soluble human FcRn [4]
  Kd: 270 µM

B11: Peptide No. 210 (peptide)
peptide: RFVTGHFG[dP]WYPANGP-NH2
modifications: N-terminus assumed
SMILES: CC(C)[C@H](NC(=O)[C@H](Cc1ccccc1)NC(=O)[C@@H](N)CCCNC(=N)N)C(=O)N[C@H](C(=O)NCC(=O)N[C@@H](Cc1c[nH]cn1)C(=O)N[C@@H](Cc1ccccc1)C(=O)NCC(=O)N1CCC[C@@H]1C(=O)N[C@@H](Cc1c[nH]c2ccccc12)C(=O)N[C@@H](Cc1ccc(O)cc1)C(=O)N1CCC[C@H]1C(=O)N[C@@H](C)C(=O)N[C@@H](CC(N)=O)C(=O)NCC(=O)N1CCC[C@H]1C(N)=O)[C@@H](C)O
Soluble human FcRn [3]
  IC50: 100 µM

## QRFXTGHXGGLYPCNGP (Pen at 4; 4-MePhe at 8; disulfide; C-terminal amide) [Peptide No. 90]
Soluble human FcRn [4]
  Kd: 0.2 µM

## QRFXTGHXGGLYPCNGP (Pen at 4; 2-MePhe at 8; disulfide; C-terminal amide) [Peptide No. 88]
Soluble human FcRn [4]
  Kd: 0.2 µM
Soluble human FcRn [5]
  IC50: 1 µM
